From PMC9963953, “Structures of MPND Reveal the Molecular Recognition of Nucleosomes”

Target: T1, MPND 54-163 (RAMA domain, crystal) (Mus musculus, UniProt Q3TV65 54-163)
T1 sequence: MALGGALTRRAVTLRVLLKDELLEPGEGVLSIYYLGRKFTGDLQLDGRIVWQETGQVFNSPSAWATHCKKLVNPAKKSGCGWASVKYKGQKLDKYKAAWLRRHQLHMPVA
Test: X-ray crystallography (2.47 A); EMSA: 20 mM HEPES pH 7.2, 100 mM NaCl, 2 mM DTT, 0.1% NP-40, 20 uM protein, 5 uM DNA, on ice; MST: 20 mM HEPES pH 7.2, 100 mM NaCl, 0.1% NP-40, 22 C; pull-down: 20 mM HEPES pH 7.2, 0.15 M NaCl, 1 mM DTT, 4 C
Details: protein: recombinant; tags: tag removed with TEV; 18 bp, 5' overhangs 1 nt

B1: crystallization dsDNA (dsDNA)
DNA 1: CAGCAACAGAAGAGGATCT
DNA 2: GAGATCCTCTTCTGTTGCT
  binding result: binds
